Source: the supplement of paper PMC5998384

Key:
[1] = tested on: HeLa Kyoto; experiment: solubility in G1/S (NP-40 vs SDS abundance) (log2 ratio); higher = more soluble; details: cell cycle stage: G1/S
[2] = tested on: HeLa Kyoto; experiment: melting temperature (median over replicates), in situ; higher = more thermally stable
[3] = tested on: HeLa Kyoto; experiment: solubility change mitosis vs G1/S (difference of NP-40 vs SDS log2 ratios) (log2 ratio difference); higher = more soluble in mitosis
[4] = tested on: HeLa Kyoto; experiment: thermal stability score vs G1/S (z-score of summed log2 fold changes over temperatures); higher = more thermally stable than in G1/S
[5] = cell cycle stage: early G1 (4.5 h after nocodazole release)
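Wherever melting temperature (median over replicates), in situ is given: HeLa Kyoto cells synchronized by double thymidine or nocodazole block, proteins quantified by TMT10plex mass spectrometry, three independent biological replicates.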
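Wherever solubility change mitosis vs G1/S (difference of NP-40 vs SDS log2 ratios) is given: synchronized HeLa Kyoto cells (double thymidine block for G1/S, nocodazole release for mitosis), protein amounts in NP-40 versus SDS lysates quantified by mass spectrometry, three biological replicates.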
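Wherever solubility in G1/S (NP-40 vs SDS abundance) is given: HeLa Kyoto cells arrested at G1/S by double thymidine block, proteins quantified by TMT10plex mass spectrometry in mild NP-40 versus SDS extracts, three biological replicates.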
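Wherever thermal stability score vs G1/S (z-score of summed log2 fold changes over temperatures) is given: synchronized HeLa Kyoto cells, proteins quantified by TMT10plex mass spectrometry, three biological replicates, mitosis taken 0.5 h after nocodazole release, G1/S directly after double thymidine block.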

| Substance | solubility in G1/S (log2) [1] | melting temperature ([2]; cell cycle stage: G1/S) [°C] | melting temperature ([2]; cell cycle stage: mitosis) [°C] | solubility change mitosis (log2) [3] | thermal stability score [4, 5] | thermal stability score ([4]; cell cycle stage: mitosis) |
| --- | --- | --- | --- | --- | --- | --- |
| MSSSVRRKGKPGKGGGKGSSRGGRGGRSHASKSHGSGGGGGGGGGGGGGNRKASSRIWDDGDDFCIFSESRRPSRPSNSNISKGESRPKWKPKAKVPLQTLHMTSENQEKVKALLRDLQEQDADAGSERGLSGEEEDDEPDCCNDERYWPAGQEPSLVPDLDPLEYAGLASVEPYVPEFTVSPFAVQKLSRYGFNTERCQAVLRMCDGDVGASLEHLLTQCFSETFGERMKISEAVNQISLDECMEQRQEEAFALKSICGEKFIERIQNRVWTIGLELEYLTSRFRKSKPKESTKNVQENSLEICKFYLKGNCKFGSKCRFKHEVPPNQIVGRIERSVDDSHLNAIEDASFLYELEIRFSKDHKYPYQAPLVAFYSTNENLPLACRLHISEFLYDKALTFAETSEPVVYSLITLLEEESEIVKLLTNTHHKYSDPPVNFLPVPSRTRINNPACHKTVIPNNSFVSNQIPEVEKASESEESDEDDGPAPVIVENESYVNLKKKISKRYDWQAKSVHAENGKICKQFRMKQASRQFQSILQERQSLPAWEERETILNLLRKHQVVVISGMTGCGKTTQIPQFILDDSLNGPPEKVANIICTQPRRISAISVAERVAKERAERVGLTVGYQIRLESVKSSATRLLYCTTGVLLRRLEGDTALQGVSHIIVDEVHERTEESDFLLLVLKDIVSQRPGLQVILMSATLNAELFSDYFNSCPVITIPGRTFPVDQFFLEDAIAVTRYVLQDGSPYMRSMKQISKEKLKARRNRTAFEEVEEDLRLSLHLQDQDSVKDAVPDQQLDFKQLLARYKGVSKSVIKTMSIMDFEKVNLELIEALLEWIVDGKHSYPPGAILVFLPGLAEIKMLYEQLQSNSLFNNRRSNRCVIHPLHSSLSSEEQQAVFVKPPAGVTKIIISTNIAETSITIDDVVYVIDSGKMKEKRYDASKGMESLEDTFVSQANALQRKGRAGRVASGVCFHLFTSHHYNHQLLKQQLPEIQRVPLEQLCLRIKILEMFSAHNLQSVFSRLIEPPHTDSLRASKIRLRDLGALTPDERLTPLGYHLASLPVDVRIGKLMLFGSIFRCLDPALTIAASLAFKSPFVSPWDKKEEANQKKLEFAFANSDYLALLQAYKGWQLSTKEGVRASYNYCRQNFLSGRVLQEMASLKRQFTELLSDIGFAREGLRAREIEKRAQGGDGVLDATGEEANSNAENPKLISAMLCAALYPNVVQVKSPEGKFQKTSTGAVRMQPKSAELKFVTKNDGYVHIHPSSVNYQVRHFDSPYLLYHEKIKTSRVFIRDCSMVSVYPLVLFGGGQVNVQLQRGEFVVSLDDGWIRFVAASHQVAELVKELRCELDQLLQDKIKNPSIDLCTCPRGSRIISTIVKLVTTQ [DHX57] | -0.884 | 53 | 51.9 | 0.223 | -0.0848 | -0.271 |
| MFGAAGRQPIGAPAAGNSWHFSRTMEELVHDLVSALEESSEQARGGFAETGDHSRSISCPLKRQARKRRGRKRRSYNVHHPWETGHCLSEGSDSSLEEPSKDYRENHNNNKKDHSDSDDQMLVAKRRPSSNLNNNVRGKRPLWHESDFAVDNVGNRTLRRRRKVKRMAVDLPQDISNKRTMTQPPEGCRDQDMDSDRAYQYQEFTKNKVKKRKLKIIRQGPKIQDEGVVLESEETNQTNKDKMECEEQKVSDELMSESDSSSLSSTDAGLFTNDEGRQGDDEQSDWFYEKESGGACGITGVVPWWEKEDPTELDKNVPDPVFESILTGSFPLMSHPSRRGFQARLSRLHGMSSKNIKKSGGTPTSMVPIPGPVGNKRMVHFSPDSHHHDHWFSPGARTEHDQHQLLRDNRAERGHKKNCSVRTASRQTSMHLGSLCTGDIKRRRKAAPLPGPTTAGFVGENAQPILENNIGNRMLQNMGWTPGSGLGRDGKGISEPIQAMQRPKGLGLGFPLPKSTSATTTPNAGKSA [GPATCH2] | 0.0278 | 51.7 | 53 | -0.0138 | -0.791 | -1.01 |
| MEGAKPTLQLVYQAVQALYHDPDPSGKERASFWLGELQRSVHAWEISDQLLQIRQDVESCYFAAQTMKMKIQTSFYELPTDSHASLRDSLLTHIQNLKDLSPVIVTQLALAIADLALQMPSWKGCVQTLVEKYSNDVTSLPFLLEILTVLPEEVHSRSLRIGANRRTEIIEDLAFYSSTVVSLLMTCVEKAGTDEKMLMKVFRCLGSWFNLGVLDSNFMANNKLLALLFEVLQQDKTSSNLHEAASDCVCSALYAIENVETNLPLAMQLFQGVLTLETAYHMAVAREDLDKVLNYCRIFTELCETFLEKIVCTPGQGLGDLRTLELLLICAGHPQYEVVEISFNFWYRLGEHLYKTNDEVIHGIFKAYIQRLLHALARHCQLEPDHEGVPEETDDFGEFRMRVSDLVKDLIFLIGSMECFAQLYSTLKEGNPPWEVTEAVLFIMAAIAKSVDPENNPTLVEVLEGVVRLPETVHTAVRYTSIELVGEMSEVVDRNPQFLDPVLGYLMKGLCEKPLASAAAKAIHNICSVCRDHMAQHFNGLLEIARSLDSFLLSPEAAVGLLKGTALVLARLPLDKITECLSELCSVQVMALKKLLSQEPSNGISSDPTVFLDRLAVIFRHTNPIVENGQTHPCQKVIQEIWPVLSETLNKHRADNRIVERCCRCLRFAVRCVGKGSAALLQPLVTQMVNVYHVHQHSCFLYLGSILVDEYGMEEGCRQGLLDMLQALCIPTFQLLEQQNGLQNHPDTVDDLFRLATRFIQRSPVTLLRSQVVIPILQWAIASTTLDHRDANCSVMRFLRDLIHTGVANDHEEDFELRKELIGQVMNQLGQQLVSQLLHTCCFCLPPYTLPDVAEVLWEIMQVDRPTFCRWLENSLKGLPKETTVGAVTVTHKQLTDFHKQVTSAEECKQVCWALRDFTRLFR [TNPO3] | -0.253 | 51.6 | 51.7 | -0.0891 | 0.188 | 1.24 |
| GOLGA4 | 0.348 | 48.5 | 49.2 | -0.133 | 0.946 | 2.53 |
